Series [1] has as its target T1, Thymidylate synthase (Homo sapiens, UniProt P04818). Briefly: Binding affinity against Recombinant human thymidylate synthase (TS).
Series [2] can be described thus: Binding affinity against human monofunctional glycinamide ribonucleotide formyl transferase (GARFT).
Series [3] concerns the target T2, Dihydrofolate reductase (Homo sapiens, UniProt P00374).
T2 sequence (P00374 whole entry): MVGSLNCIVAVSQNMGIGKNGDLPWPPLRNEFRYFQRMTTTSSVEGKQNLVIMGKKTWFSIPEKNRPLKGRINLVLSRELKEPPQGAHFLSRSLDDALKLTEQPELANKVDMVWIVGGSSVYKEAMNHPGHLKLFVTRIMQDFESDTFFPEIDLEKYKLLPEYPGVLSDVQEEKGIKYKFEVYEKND
Briefly: Binding affinity against Recombinant human dihydrofolate reductase (DHFR).

Series [4] in a line: Ratio of Vmax/Km was evaluated.
A short description of series [5]: Binding affinity against human monofunctional glycinamide ribonucleotide formyl transferase (GARFT).
Series [6] has as its target T1, Thymidylate synthase. Briefly: Binding affinity against Recombinant human thymidylate synthase (TS).
Substrate in series [7]: CCC(Cc1cnc2nc(N)nc(N)c2n1)c1ccc(C(=O)N[C@@H](CCC(=O)O)C(=O)O)cc1
Briefly: Substrate activity against folyl-poly-glutamate synthetase (FPGS) (isolated from hog liver). Particulars: Sus scrofa.

Substrate in series [8]: Nc1ncc(CCCCc2ccc(C(=O)N[C@@H](CCC(=O)O)C(=O)O)cc2)c(N)n1
In words: (§1) Substrate activity against folyl-poly-glutamate synthetase isolated from hog liver. Particulars: Sus scrofa.

Substrate in series [9]: Nc1nc2[nH]cc(CCc3ccc(C(=O)N[C@@H](CCC(=O)O)C(=O)O)cc3)c2c(=O)[nH]1
The description is as §1. Particulars: Sus scrofa.

Substrate in series [10]: CN(Cc1cnc2nc(N)nc(N)c2n1)c1ccc(C(=O)N[C@@H](CCC(=O)O)C(=O)O)cc1
The description is as §1. Particulars: Sus scrofa.

Substrate in series [11]: Nc1ncc(CCCc2ccc(C(=O)N[C@@H](CCC(=O)O)C(=O)O)cc2)c(N)n1
The description is as §1. Conditions: Sus scrofa.

Substrate in series [12]: Nc1nc2c(c(=O)[nH]1)C[C@@H](CCc1ccc(C(=O)N[C@@H](CCC(=O)O)C(=O)O)cc1)CN2
The series is described as §1. Particulars: Sus scrofa.

Data on 7 molecules can be found in ChEMBL document CHEMBL1152109, “Synthesis and biological evaluation of a new series of dihydrofolate reductase inhibitors based on the 4-(2,6-diamino-5-pyrimidinyl)alkyl-L-glutamic acid structure” (Bioorg Med Chem Lett, 1996).

T1 sequence (P04818 whole entry): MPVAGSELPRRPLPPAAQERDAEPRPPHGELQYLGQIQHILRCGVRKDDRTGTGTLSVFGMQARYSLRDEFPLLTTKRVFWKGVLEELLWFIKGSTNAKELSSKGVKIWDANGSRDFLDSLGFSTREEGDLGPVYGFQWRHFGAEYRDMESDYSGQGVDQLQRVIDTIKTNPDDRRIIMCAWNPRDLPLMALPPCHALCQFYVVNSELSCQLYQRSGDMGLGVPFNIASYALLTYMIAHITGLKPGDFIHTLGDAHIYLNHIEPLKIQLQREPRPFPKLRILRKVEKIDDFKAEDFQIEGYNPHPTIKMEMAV

For the molecule `Nc1ncc(CCCc2ccc(C(=O)N[C@@H](CCC(=O)O)C(=O)O)cc2)c(N)n1`, the Ki – broadly, a dissociation constant, usually derived from enzyme kinetics or from competition with a known ligand – is more than 5 µM in series [1], 54.3 µM in series [2] and 0.12 nM in [3].
As for `CCC(Cc1cnc2nc(N)nc(N)c2n1)c1ccc(C(=O)N[C@@H](CCC(=O)O)C(=O)O)cc1` (stereo partly drawn), in series [4], the Ratio was determined as 19.
On the same count and under the same terms, for `Nc1nc2c(c(=O)[nH]1)CC(CCc1ccc(C(=O)N[C@@H](CCC(=O)O)C(=O)O)cc1)CN2` (single isomer, unassigned) the value was 60.
Consider `Nc1ncc(CCCCc2ccc(C(=O)N[C@@H](CCC(=O)O)C(=O)O)cc2)c(N)n1`, for which the Ratio in [4] is 34. Also, the Ki was 0.005 nM in series [3], 62 µM in series [5] and more than 5 µM in series [6].
As to `Nc1nc2[nH]cc(CCc3ccc(C(=O)N[C@@H](CCC(=O)O)C(=O)O)cc3)c2c(=O)[nH]1`, in [4], the Ratio came out at 381.
On the same count and under the same terms, for `CN(Cc1cnc2nc(N)nc(N)c2n1)c1ccc(C(=O)N[C@@H](CCC(=O)O)C(=O)O)cc1` the value was 4.3.

B1: Folylpolyglutamate synthase, mitochondrial (Homo sapiens), Q05932 (protein)
chain: MSRARSHLRAALFLAAASARGITTQVAARRGLSAWPVPQEPSMEYQDAVRMLNTLQTNAGYLEQVKRQRGDPQTQLEAMELYLARSGLQVEDLDRLNIIHVTGTKGKGSTCAFTECILRSYGLKTGFFSSPHLVQVRERIRINGQPISPELFTKYFWRLYHRLEETKDGSCVSMPPYFRFLTLMAFHVFLQEKVDLAVVEVGIGGAYDCTNIIRKPVVCGVSSLGIDHTSLLGDTVEKIAWQKGGIFKQGVPAFTVLQPEGPLAVLRDRAQQISCPLYLCPMLEALEEGGPPLTLGLEGEHQRSNAALALQLAHCWLQRQDRHGAGEPKASRPGLLWQLPLAPVFQPTSHMRLGLRNTEWPGRTQVLRRGPLTWYLDGAHTASSAQACVRWFRQALQGRERPSGGPEVRVLLFNATGDRDPAALLKLLQPCQFDYAVFCPNLTEVSSTGNADQQNFTVTLDQVLLRCLEHQQHWNHLDEEQASPDLWSAPSPEPGGSASLLLAPHPPHTCSASSLVFSCISHALQWISQGRDPIFQPPSPPKGLLTHPVAHSGASILREAAAIHVLVTGSLHLVGGVLKLLEPALSQ
On to B1, for which the Km (commonly the concentration of substrate that gives half-maximal velocity) is 13.3 µM in series [7]; 20 µM in series [8]; 1.9 µM in series [9]; 116 µM in series [10]; 5.1 µM in series [11]; 16.4 µM in series [12]. The Vmax – broadly, the top rate of the reaction or transport when substrate is in excess – in series [7] is 258 nM/h/mg; in series [8], 685 nM/h/mg; in [9], 725 nM/h/mg; in series [10], 498 nM/h/mg; in series [11] it was 758 nM/h/mg; in [12], 977 nM/h/mg.
